Assay results as given in patent US20020004485A1.
Each block holds one substance with its values, some of them ahead of it.

How the values were obtained:
[1] = biological target: MC receptor endogenous to Xenopus laevis melanophores (Xenopus laevis); test: cell-based or functional assay
[2] = biological target: atypical MC receptor of Cos-7 cells; test: cell-based or functional assay
[3] = biological target: human MCR-1 receptor (human) (UniProt Q01726); test: cell-based or functional assay
[4] = biological target: human MCR-3 receptor (human) (UniProt P41968); test: cell-based or functional assay
Chain of human MCR-3 receptor (human) (P41968 whole entry): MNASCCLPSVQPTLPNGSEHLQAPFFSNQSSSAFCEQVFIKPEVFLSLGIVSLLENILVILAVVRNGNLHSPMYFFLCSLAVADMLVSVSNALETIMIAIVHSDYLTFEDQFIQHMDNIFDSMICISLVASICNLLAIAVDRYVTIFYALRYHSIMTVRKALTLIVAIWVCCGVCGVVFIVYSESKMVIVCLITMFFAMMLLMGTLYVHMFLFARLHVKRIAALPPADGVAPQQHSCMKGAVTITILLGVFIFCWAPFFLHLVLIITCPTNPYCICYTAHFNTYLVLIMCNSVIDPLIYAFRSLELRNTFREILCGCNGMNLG

[5] = biological target: human MCR-4 receptor (human) (UniProt P32245); test: cell-based or functional assay
Chain of human MCR-4 receptor (human) (P32245 whole entry): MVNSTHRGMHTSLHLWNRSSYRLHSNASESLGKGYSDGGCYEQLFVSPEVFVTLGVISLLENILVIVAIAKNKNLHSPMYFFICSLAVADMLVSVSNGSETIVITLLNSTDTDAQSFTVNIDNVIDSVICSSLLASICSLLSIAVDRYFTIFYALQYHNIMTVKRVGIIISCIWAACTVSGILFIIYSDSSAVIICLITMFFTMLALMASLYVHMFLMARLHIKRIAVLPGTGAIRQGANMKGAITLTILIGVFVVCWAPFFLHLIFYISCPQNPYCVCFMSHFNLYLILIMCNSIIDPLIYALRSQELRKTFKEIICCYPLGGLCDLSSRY

[6] = biological target: atypical MC receptor of Cos-7 cells; test: estimated from the shift of the α-MSH cAMP curve in Cos-7 cells (functional)
[7] = biological target: MC receptor endogenous to Xenopus laevis melanophores (Xenopus laevis); test: Schild plot; antagonism of α-MSH pigment dispersion in Xenopus melanophores (functional)
[8] = biological target: ACTH (MCR-2) receptor endogenous to murine Y1 adrenocortical cells (murine) (UniProt Q64326); test: cell-based or functional assay
Chain of ACTH (MCR-2) receptor endogenous to murine Y1 adrenocortical cells (murine) (Q64326 whole entry): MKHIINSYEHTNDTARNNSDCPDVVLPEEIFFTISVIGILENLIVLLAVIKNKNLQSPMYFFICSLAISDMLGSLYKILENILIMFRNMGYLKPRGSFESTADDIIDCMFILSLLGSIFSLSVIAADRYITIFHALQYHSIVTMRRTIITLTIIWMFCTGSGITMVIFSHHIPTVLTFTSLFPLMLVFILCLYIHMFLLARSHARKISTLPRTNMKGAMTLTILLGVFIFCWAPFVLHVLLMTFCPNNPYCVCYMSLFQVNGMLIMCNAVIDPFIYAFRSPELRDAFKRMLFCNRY

Chain of human MCR-1 receptor (human) (Q01726 whole entry): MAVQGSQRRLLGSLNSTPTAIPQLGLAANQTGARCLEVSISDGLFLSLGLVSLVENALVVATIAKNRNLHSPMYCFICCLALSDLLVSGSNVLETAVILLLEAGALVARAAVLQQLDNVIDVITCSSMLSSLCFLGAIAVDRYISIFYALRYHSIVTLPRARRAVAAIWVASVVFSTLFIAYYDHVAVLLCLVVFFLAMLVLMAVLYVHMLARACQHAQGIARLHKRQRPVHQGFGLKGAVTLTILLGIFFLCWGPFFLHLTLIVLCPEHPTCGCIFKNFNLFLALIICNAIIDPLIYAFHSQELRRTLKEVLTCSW

- IC50 nM in Frog Melanophore Assay [1]: 145 nM
- fold shift of the α-MSH EC50 by 30 µM dynorphin A(1-13)-NH2 [2]: 50 fold
- EC50 of α-MSH in the presence of 30 µM dynorphin A(1-13)-NH2, MCR-1 [3]: 2100 nM
- EC50 of α-MSH in the presence of 30 µM dynorphin A(1-13)-NH2, MCR-3 [4]: 1600 nM
- EC50 of α-MSH in the presence of 30 µM dynorphin A(1-13)-NH2, MCR-4 [5]: 2000 nM
- Kd [6]: 1000 nM
- Ki [7]: 71 nM
Substance: dynorphin A(1-13)-NH2 (from UniProt P01213 207-219) (peptide)

- IC50 in the frog MCR assay [1]: > 10000 nM
Substance: neurotensin(8-13) analog, D-Arg-Arg-Pro-Trp-Ile-Leu (peptide)

The remaining lines, values behind:

Substance: dynorphin A(2-13) (from UniProt P01213 176-187) (peptide)
- EC50 of ACTH-(1-24) in the presence of 30 µM dynorphin A(2-13) [8]: 28 nM
- fold shift to the right of the concentration-response curve of ACTH-(1-24) at 30 µM [8]: 15 fold
- dose ratio of α-MSH dose-response curves with and without 30 µM dynorphin A(2-13), MCR-1 [3]: 250
- dose ratio of α-MSH dose-response curves with and without 30 µM dynorphin A(2-13), MCR-3 [4]: 128
- dose ratio of α-MSH dose-response curves with and without 30 µM dynorphin A(2-13), MCR-4 [5]: 147
- Ki [7]: 79 nM

Substance: p-anisoyl-[D-Arg^6,9, D-Lys^11, D-Leu^12] dynorphin A(6-12)-NH2 (peptide)
- Ki [7]: 12 nM
- pKi [7]: 7.91

Substance: urocortin (peptide)
- IC50 in the frog MCR assay [1]: > 10000 nM
